This assay deals with T1, Clp-protease subunit R (ClpR) from Synechococcus sp. (Synechococcus sp., UniProt Q9L4P4 1-228).
T1 construct: ClpR, Clp-protease subunit R, Synechococcus sp., UniProtKB Q9L4P4; Stood in the crosslinked ClpCP3R complex; also called R-subunit; source: part of the Synechococcus ClpCP3R complex, obtained as described previously according to [20]
T1 sequence (looked up): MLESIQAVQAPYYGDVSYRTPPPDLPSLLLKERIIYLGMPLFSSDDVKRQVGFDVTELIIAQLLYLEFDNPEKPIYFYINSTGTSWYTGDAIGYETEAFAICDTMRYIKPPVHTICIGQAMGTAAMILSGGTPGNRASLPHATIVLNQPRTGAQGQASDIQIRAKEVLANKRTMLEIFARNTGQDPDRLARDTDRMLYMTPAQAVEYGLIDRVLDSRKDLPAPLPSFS
Description: cross-linking; Clp-protease multisubunit complex (ClpCP3R) crosslinked with H12/D12 BS3; tryptic digest separated into 192 fractions, LC-MALDI-TOF/TOF, FINDX (7 ppm, intensity parameter 0.22), MSMS validation. The conditions noted are these: both partners purified.

From article PMC3377668, “Detection of Crosslinks within and between Proteins by LC-MALDI-TOFTOF and the Software FINDX to Reduce the MSMS-Data to Acquire for Validation” (PLoS ONE, 2012) come the findings set out here.

B1: Clp-protease subunit P3 (ClpP3) from Synechococcus sp. (natural protein, UniProt Q9L4P3 1-199, looked up)
chain: MPIGVPSVPYRLPGSSFERWIDIYNRLAMERIIFLGQEVTDGLANSIVAQLLYLDSEDSSKPIYLYINSPGGSVTAGMAIYDTMQYIKSPVITICLGLAASMGAFLLCAGSKGKRLALPHSRIMIHQPLGGTGRRQASDIEIEAKEILRIKKLLNQIMADRTGQPLEKIEKDTDRDYFMSAEEAREYGLIDQVIAERPV
notes: ClpP3, Clp-protease subunit P, Synechococcus sp., UniProtKB Q9L4P3; Stood in the crosslinked ClpCP3R complex (P3 and R in a proteolytic core of two heptameric rings, ClpC in a hexameric ring); also called P3-subunit; source: part of the Synechococcus ClpCP3R complex, obtained as described previously according to [20]; not shown: His6, C-terminal, kept
On to B1, for which the binding result is “binds”.
